According to patent publication US20250136702A1, “HUMAN LIFR ANTIGEN BINDING PROTEIN, PREPARATION METHOD THEREFOR, AND APPLICATION THEREOF” (NONA BIOSCIENCES (SUZHOU) CO., LTD., priority 2020, published 2025):

Biological target: human LIFR expressed on the surface of 293T cells (human) (UniProt P42702)
Test: flow cytometry on HEK293T-huLIFR cells, median fluorescence, span of the fitted curve

Chain of human LIFR expressed on the surface of 293T cells (human) (P42702 45-1097): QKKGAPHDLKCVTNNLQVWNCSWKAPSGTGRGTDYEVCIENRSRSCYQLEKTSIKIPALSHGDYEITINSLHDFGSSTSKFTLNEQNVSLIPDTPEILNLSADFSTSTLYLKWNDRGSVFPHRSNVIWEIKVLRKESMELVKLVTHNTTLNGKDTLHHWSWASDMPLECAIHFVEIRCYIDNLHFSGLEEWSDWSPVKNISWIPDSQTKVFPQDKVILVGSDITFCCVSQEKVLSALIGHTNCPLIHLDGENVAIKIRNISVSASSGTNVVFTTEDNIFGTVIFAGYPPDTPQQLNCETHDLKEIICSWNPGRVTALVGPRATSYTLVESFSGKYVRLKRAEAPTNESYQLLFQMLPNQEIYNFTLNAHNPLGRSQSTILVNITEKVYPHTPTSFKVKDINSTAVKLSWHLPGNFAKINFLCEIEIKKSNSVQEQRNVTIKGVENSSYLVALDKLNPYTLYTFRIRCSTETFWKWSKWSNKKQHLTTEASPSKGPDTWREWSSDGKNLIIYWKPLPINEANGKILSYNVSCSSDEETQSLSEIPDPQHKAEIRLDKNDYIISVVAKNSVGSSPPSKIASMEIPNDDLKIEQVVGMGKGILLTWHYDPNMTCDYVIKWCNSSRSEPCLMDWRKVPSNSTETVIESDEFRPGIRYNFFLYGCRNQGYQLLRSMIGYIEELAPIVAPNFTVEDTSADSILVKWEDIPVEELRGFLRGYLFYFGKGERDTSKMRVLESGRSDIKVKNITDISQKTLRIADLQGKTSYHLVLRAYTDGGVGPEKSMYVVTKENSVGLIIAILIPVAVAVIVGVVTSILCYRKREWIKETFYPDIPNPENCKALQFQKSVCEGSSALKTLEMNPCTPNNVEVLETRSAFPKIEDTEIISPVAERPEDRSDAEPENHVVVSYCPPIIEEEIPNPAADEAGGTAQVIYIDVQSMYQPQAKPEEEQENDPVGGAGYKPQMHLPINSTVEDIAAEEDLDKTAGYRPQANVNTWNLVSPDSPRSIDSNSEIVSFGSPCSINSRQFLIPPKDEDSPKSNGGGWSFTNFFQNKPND

Span: 237
B1: PR301127 (antibody, human IgG1, kappa, V domains shown)
VH: EVQLLQSGGGLVQPGGSLRLSCAASGFTFSNYAMTWVRQAPGKGLEWVSTISGSGAFTYYADAVKGRFTISRVNSKNSLDLQMNSLRAEDTAVYYCAKGGILTGFDNWGQGTLVTVSS
VL: DIQMTQSPSTLSASVGDRVTITCRASQSISSWLAWYQQKPGKAPKLLIYKASSLESGVPSRFSGSGSGTEFSFTISSLQPDDFATYYCQQYKSFSPGGLTFGGGTKVEIKR
